Results on four molecules are retold here after patent US20220251236A1 (Boehringer Ingelheim, published 2022).

The target of this assay is T1, human DLL3 (endogenous, on SCLC cell lines NCI-H82 and SHP77 and in SCLC tissue) (human, UniProt Q9NYJ7 27-618).
T1 construct: whole, on cells; also called SCLC cell lines expressing DLL3
T1 sequence (looked up): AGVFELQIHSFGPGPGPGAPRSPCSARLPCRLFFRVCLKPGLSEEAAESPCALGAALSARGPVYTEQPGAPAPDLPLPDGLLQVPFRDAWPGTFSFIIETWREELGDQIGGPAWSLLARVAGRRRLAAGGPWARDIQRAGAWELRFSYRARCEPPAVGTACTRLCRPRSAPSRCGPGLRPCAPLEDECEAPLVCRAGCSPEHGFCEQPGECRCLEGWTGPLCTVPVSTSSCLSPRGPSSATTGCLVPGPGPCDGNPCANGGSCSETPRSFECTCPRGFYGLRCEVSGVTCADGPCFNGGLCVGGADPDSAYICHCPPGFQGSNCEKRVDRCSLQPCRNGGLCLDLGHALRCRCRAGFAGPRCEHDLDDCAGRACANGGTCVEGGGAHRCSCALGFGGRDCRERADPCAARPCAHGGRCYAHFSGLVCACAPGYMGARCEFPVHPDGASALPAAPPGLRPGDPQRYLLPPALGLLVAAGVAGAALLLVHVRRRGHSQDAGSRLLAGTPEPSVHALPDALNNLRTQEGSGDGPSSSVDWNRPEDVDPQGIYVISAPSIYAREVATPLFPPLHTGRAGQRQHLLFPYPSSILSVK
The experiment in a line: flow cytometry titration on NCI-H82 cells, PE anti-human secondary, x-fold over background. An excerpt: Cells (T cells or human SCLC cells) were stained with increasing concentrations of two-step purified DLL3/CD3 binding proteins with increasing concentrations in FACS buffer (PBS/0.5% BSA/0.05% sodium azide). Bound molecules were detected with PE-conjugated anti-human secondary antibody (Sigma-Aldrich, #P8047).
(In general: Flow cytometry measures light scatter and fluorescence of single cells or particles in a stream.)

B1: DLL3#5/CD3#1 (bispecific antibody, human IgG1, kappa, lambda, L234A L235A)
chain 1: not shown
chain 2: EAVVTQEPSLTVSPGGTVTLTCRSSTGAVTTSNYANWVQEKPGQLPRGLIGGTNKRAPWVPARFSGSLLGGKAALTLSGAQPEDEAEYFCALWYSNLWVFGGGTKLTVLGQPKAAPSVTLFPPSSEELQANKATLVCLISDFYPGAVKVAWKADGSPVNTGVETTTPSKQSNNKYAASSYLSLTPEQWKSHRSYSCQVTHEGSTVEKTVAPAECSGGGGSEGKSSGSGSESKSTEGKSSGSGSESKSTGGGGSEVQLVESGGGLVQPGGSLKLSCAASGFTFNTYAMNWVRQAPGKGLEWVARIRSKYNNYATYYADSVKDRFTISRDDSKNTAYLQMNNLKTEDTAVYYCVRHGNFGNSYVSWFAYWGQGTLVTVSAASTKGPSVFPLAPSSKSTSGGTAALGCLVKDYFPEPVTVSWNSGALTSGVHTFPAVLQSSGLYSLSSVVTVPSSSLGTQTYICNVNHKPSNTKVDKRVEPKSCDKTHTCPPCPAPEAAGGPSVFLFPPKPKDTLMISRTPEVTCVVVDVSHEDPEVKFNWYVDGVEVHNAKTKPREEQYNSTYRVVSVLTVLHQDWLNGKEYKCKVSNKALPAPIEKTISKAKGQPREPQVYTLPPSREEMTKNQVSLSCAVKGFYPSDIAVEWESNGQPENNYKTTPPVLDSDGSFFLVSKLTVDKSRWQQGNVFSCSVMHEALHNRFTQKSLSLSPG
notes: Heterodimer of one DLL3 chain and one CD3 chain (scFab-Fc, knob-in-hole)
Regarding B1, the EC50 (read off the curve) (in general, the concentration giving half of the maximal effect) is roughly 5 nM.

B2: DLL3#4/CD3#1 (bispecific antibody, human IgG1, kappa, lambda, L234A L235A)
chain 1: not shown
chain 2: EAVVTQEPSLTVSPGGTVTLTCRSSTGAVTTSNYANWVQEKPGQLPRGLIGGTNKRAPWVPARFSGSLLGGKAALTLSGAQPEDEAEYFCALWYSNLWVFGGGTKLTVLGQPKAAPSVTLFPPSSEELQANKATLVCLISDFYPGAVKVAWKADGSPVNTGVETTTPSKQSNNKYAASSYLSLTPEQWKSHRSYSCQVTHEGSTVEKTVAPAECSGGGGSEGKSSGSGSESKSTEGKSSGSGSESKSTGGGGSEVQLVESGGGLVQPGGSLKLSCAASGFTFNTYAMNWVRQAPGKGLEWVARIRSKYNNYATYYADSVKDRFTISRDDSKNTAYLQMNNLKTEDTAVYYCVRHGNFGNSYVSWFAYWGQGTLVTVSAASTKGPSVFPLAPSSKSTSGGTAALGCLVKDYFPEPVTVSWNSGALTSGVHTFPAVLQSSGLYSLSSVVTVPSSSLGTQTYICNVNHKPSNTKVDKRVEPKSCDKTHTCPPCPAPEAAGGPSVFLFPPKPKDTLMISRTPEVTCVVVDVSHEDPEVKFNWYVDGVEVHNAKTKPREEQYNSTYRVVSVLTVLHQDWLNGKEYKCKVSNKALPAPIEKTISKAKGQPREPQVYTLPPSREEMTKNQVSLSCAVKGFYPSDIAVEWESNGQPENNYKTTPPVLDSDGSFFLVSKLTVDKSRWQQGNVFSCSVMHEALHNRFTQKSLSLSPG
notes: as for B1
Turning to B2, the half-maximal effective concentration (EC50 (read off the curve)) is roughly 1 nM.

B3: DLL3#18/CD3#1 (bispecific antibody, human IgG1, kappa, lambda, L234A L235A)
chain 1: DIQMTQSPASLAASVGETVTITCRASENIYYSLAWYQQKQGKSPQLLIYNANSLEDGVPSRFSGSGSGTQYSMKINNMQPEDTATYFCKQAYDVPLTFGAGTKLELKRTVAAPSVFIFPPSDEQLKSGTASVVCLLNNFYPREAKVQWKVDNALQSGNSQESVTEQDSKDSTYSLSSTLTLSKADYEKHKVYACEVTHQGLSSPVTKSFNRGECGGGGSEGKSSGSGSESKSTEGKSSGSGSESKSTGGGGSQVQLQQSGPDLVKPGASVKMSCEASGYTFTAYFIHWVKQKPGQGLEWIGYIDPFNDDTNYNVKFKGKATLTSDTSSSIAYMELSSLTSEDSSFYYCARGTSATLDYWGHGTTLTVSSASTKGPSVFPLAPSSKSTSGGTAALGCLVKDYFPEPVTVSWNSGALTSGVHTFPAVLQSSGLYSLSSVVTVPSSSLGTQTYICNVNHKPSNTKVDKRVEPKSCDKTHTCPPCPAPEAAGGPSVFLFPPKPKDTLMISRTPEVTCVVVDVSHEDPEVKFNWYVDGVEVHNAKTKPREEQYNSTYRVVSVLTVLHQDWLNGKEYKCKVSNKALPAPIEKTISKAKGQPREPQVYTLPPSREEMTKNQVSLWCLVKGFYPSDIAVEWESNGQPENNYKTTPPVLDSDGSFFLYSKLTVDKSRWQQGNVFSCSVMHEALHNHYTQKSLSLSPG
chain 2: EAVVTQEPSLTVSPGGTVTLTCRSSTGAVTTSNYANWVQEKPGQLPRGLIGGTNKRAPWVPARFSGSLLGGKAALTLSGAQPEDEAEYFCALWYSNLWVFGGGTKLTVLGQPKAAPSVTLFPPSSEELQANKATLVCLISDFYPGAVKVAWKADGSPVNTGVETTTPSKQSNNKYAASSYLSLTPEQWKSHRSYSCQVTHEGSTVEKTVAPAECSGGGGSEGKSSGSGSESKSTEGKSSGSGSESKSTGGGGSEVQLVESGGGLVQPGGSLKLSCAASGFTFNTYAMNWVRQAPGKGLEWVARIRSKYNNYATYYADSVKDRFTISRDDSKNTAYLQMNNLKTEDTAVYYCVRHGNFGNSYVSWFAYWGQGTLVTVSAASTKGPSVFPLAPSSKSTSGGTAALGCLVKDYFPEPVTVSWNSGALTSGVHTFPAVLQSSGLYSLSSVVTVPSSSLGTQTYICNVNHKPSNTKVDKRVEPKSCDKTHTCPPCPAPEAAGGPSVFLFPPKPKDTLMISRTPEVTCVVVDVSHEDPEVKFNWYVDGVEVHNAKTKPREEQYNSTYRVVSVLTVLHQDWLNGKEYKCKVSNKALPAPIEKTISKAKGQPREPQVYTLPPSREEMTKNQVSLSCAVKGFYPSDIAVEWESNGQPENNYKTTPPVLDSDGSFFLVSKLTVDKSRWQQGNVFSCSVMHEALHNRFTQKSLSLSPG
notes: as for B1
Consider B3, for which the “EC50 (read off the curve)” value was roughly 1 nM.

B4: DLL3#17/CD3#1 (bispecific antibody, human IgG1, kappa, lambda, L234A L235A)
chain 1: DIQMTQSPASLAASVGETVTITCRASENIYYSLAWYQQKQGKSPQLLIYNTNSLEDGVPSRFSGSGSGTQYSMKINSMQPEDTATYFCKQAYDFPLTFGAGTKLELKRTVAAPSVFIFPPSDEQLKSGTASVVCLLNNFYPREAKVQWKVDNALQSGNSQESVTEQDSKDSTYSLSSTLTLSKADYEKHKVYACEVTHQGLSSPVTKSFNRGECGGGGSEGKSSGSGSESKSTEGKSSGSGSESKSTGGGGSQIQLQQSGPEVVKPGASVKISCKASGYTFISYYIHWVKQRPGQGLEWIGWIYPGDGSTNNNEKFKGKTTLTADKSSSTAYMLLSSLTSEDSAVYFCARGEGNAMDDWGQGTSVTVSSASTKGPSVFPLAPSSKSTSGGTAALGCLVKDYFPEPVTVSWNSGALTSGVHTFPAVLQSSGLYSLSSVVTVPSSSLGTQTYICNVNHKPSNTKVDKRVEPKSCDKTHTCPPCPAPEAAGGPSVFLFPPKPKDTLMISRTPEVTCVVVDVSHEDPEVKFNWYVDGVEVHNAKTKPREEQYNSTYRVVSVLTVLHQDWLNGKEYKCKVSNKALPAPIEKTISKAKGQPREPQVYTLPPSREEMTKNQVSLWCLVKGFYPSDIAVEWESNGQPENNYKTTPPVLDSDGSFFLYSKLTVDKSRWQQGNVFSCSVMHEALHNHYTQKSLSLSPG
chain 2: EAVVTQEPSLTVSPGGTVTLTCRSSTGAVTTSNYANWVQEKPGQLPRGLIGGTNKRAPWVPARFSGSLLGGKAALTLSGAQPEDEAEYFCALWYSNLWVFGGGTKLTVLGQPKAAPSVTLFPPSSEELQANKATLVCLISDFYPGAVKVAWKADGSPVNTGVETTTPSKQSNNKYAASSYLSLTPEQWKSHRSYSCQVTHEGSTVEKTVAPAECSGGGGSEGKSSGSGSESKSTEGKSSGSGSESKSTGGGGSEVQLVESGGGLVQPGGSLKLSCAASGFTFNTYAMNWVRQAPGKGLEWVARIRSKYNNYATYYADSVKDRFTISRDDSKNTAYLQMNNLKTEDTAVYYCVRHGNFGNSYVSWFAYWGQGTLVTVSAASTKGPSVFPLAPSSKSTSGGTAALGCLVKDYFPEPVTVSWNSGALTSGVHTFPAVLQSSGLYSLSSVVTVPSSSLGTQTYICNVNHKPSNTKVDKRVEPKSCDKTHTCPPCPAPEAAGGPSVFLFPPKPKDTLMISRTPEVTCVVVDVSHEDPEVKFNWYVDGVEVHNAKTKPREEQYNSTYRVVSVLTVLHQDWLNGKEYKCKVSNKALPAPIEKTISKAKGQPREPQVYTLPPSREEMTKNQVSLSCAVKGFYPSDIAVEWESNGQPENNYKTTPPVLDSDGSFFLVSKLTVDKSRWQQGNVFSCSVMHEALHNRFTQKSLSLSPG
notes: as for B1
Regarding B4, the “EC50 (read off the curve)” value is roughly 1 nM.
